In PMC6700787, “Sharpin suppresses β1-integrin activation by complexing with the β1 tail and kindlin-1” (Cell Communication and Signaling : CCS, 2019):

T1: GST-fused kindlin-1 (Homo sapiens (Human), UniProt Q9BQL6)
T1 chain: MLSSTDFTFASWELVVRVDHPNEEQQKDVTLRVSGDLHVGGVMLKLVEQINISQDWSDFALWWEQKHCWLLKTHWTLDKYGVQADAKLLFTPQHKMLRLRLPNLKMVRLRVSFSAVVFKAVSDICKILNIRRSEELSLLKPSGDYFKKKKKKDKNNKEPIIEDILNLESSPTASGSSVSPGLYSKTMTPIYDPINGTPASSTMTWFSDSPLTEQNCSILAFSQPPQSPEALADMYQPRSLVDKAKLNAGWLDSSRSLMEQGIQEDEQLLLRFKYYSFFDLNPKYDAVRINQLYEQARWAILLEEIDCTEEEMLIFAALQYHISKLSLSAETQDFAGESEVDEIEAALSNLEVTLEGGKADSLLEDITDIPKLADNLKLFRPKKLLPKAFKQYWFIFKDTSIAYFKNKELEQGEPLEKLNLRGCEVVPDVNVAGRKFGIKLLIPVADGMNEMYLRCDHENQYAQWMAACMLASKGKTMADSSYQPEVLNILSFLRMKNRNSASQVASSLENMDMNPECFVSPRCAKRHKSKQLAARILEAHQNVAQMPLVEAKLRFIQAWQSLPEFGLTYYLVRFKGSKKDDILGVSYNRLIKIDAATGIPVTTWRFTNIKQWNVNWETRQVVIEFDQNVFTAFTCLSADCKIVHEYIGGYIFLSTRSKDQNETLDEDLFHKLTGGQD

T2: GST-fused integrin β1 cytoplasmic tail (Homo sapiens (Human), UniProt P05556)
T2 chain: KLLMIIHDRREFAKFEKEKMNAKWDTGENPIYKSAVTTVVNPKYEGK

T3: N-terminus of sharpin (SH-N, 1-217 amino acids), his-tagged (UniProt Q9H0F6 1-217)
T3 construct: also called His-SH-N; N-terminal fragment of sharpin; source: E. coli Rosetta DE3, purified (Ni-NTA agarose)
T3 sequence (looked up): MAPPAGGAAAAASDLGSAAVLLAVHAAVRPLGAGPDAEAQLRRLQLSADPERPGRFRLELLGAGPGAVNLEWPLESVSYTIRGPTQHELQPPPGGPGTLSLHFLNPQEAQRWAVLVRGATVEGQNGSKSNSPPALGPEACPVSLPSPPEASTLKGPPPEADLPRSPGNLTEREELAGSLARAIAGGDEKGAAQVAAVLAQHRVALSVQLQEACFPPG


Legend:
GST-fused kindlin-1 = biological target: T1, GST-fused kindlin-1; assay: GST pull-down
[1] = biological target: T2, GST-fused integrin β1 cytoplasmic tail; assay: GST pull-down
[2] = biological target: T3, N-terminus of sharpin (SH-N, 1-217 …); assay: SPR; Biacore 8K; N-terminal fragment of sharpin coupled to a CM5 chip; integrin β1 CT or β3 CT injected at 2.5, 5, 10, 20 and 40 μM; room temperature, PBS; conditions: both partners purified

Row | binding result (GST-fused kindlin-1) | binding result [1] | Kd [2] [µM] | Binder
1 | binds | no binding |  | C-terminus of sharpin (SH-C, 217-387 amino acids), his-tagged (protein) GPIRLQVTLEDAASAASAASSAHVALQVHPHCTVAALQEQVFSELGFPPAVQRWVIGRCLCVPERSLASYGVRQDGDPAFLYLLSAPREAPATGPSPQHPQKMDGELGRLFPPSLGLPPGPQPAASSLPSPLQPSWSCPSCTFINAPDRPGCEMCSTQRPCTWDPLAAAST
2 |  | binds |  | his-tagged kindlin-1 (protein) MLSSTDFTFASWELVVRVDHPNEEQQKDVTLRVSGDLHVGGVMLKLVEQINISQDWSDFALWWEQKHCWLLKTHWTLDKYGVQADAKLLFTPQHKMLRLRLPNLKMVRLRVSFSAVVFKAVSDICKILNIRRSEELSLLKPSGDYFKKKKKKDKNNKEPIIEDILNLESSPTASGSSVSPGLYSKTMTPIYDPINGTPASSTMTWFSDSPLTEQNCSILAFSQPPQSPEALADMYQPRSLVDKAKLNAGWLDSSRSLMEQGIQEDEQLLLRFKYYSFFDLNPKYDAVRINQLYEQARWAILLEEIDCTEEEMLIFAALQYHISKLSLSAETQDFAGESEVDEIEAALSNLEVTLEGGKADSLLEDITDIPKLADNLKLFRPKKLLPKAFKQYWFIFKDTSIAYFKNKELEQGEPLEKLNLRGCEVVPDVNVAGRKFGIKLLIPVADGMNEMYLRCDHENQYAQWMAACMLASKGKTMADSSYQPEVLNILSFLRMKNRNSASQVASSLENMDMNPECFVSPRCAKRHKSKQLAARILEAHQNVAQMPLVEAKLRFIQAWQSLPEFGLTYYLVRFKGSKKDDILGVSYNRLIKIDAATGIPVTTWRFTNIKQWNVNWETRQVVIEFDQNVFTAFTCLSADCKIVHEYIGGYIFLSTRSKDQNETLDEDLFHKLTGGQD
3 |  |  | 40 | KLLMIIHDRREFAKFEKEKMNAKWDTGENPIYKSAVTTVVNPKYEGK (domain or fragment, UniProt P05556 752-798, looked up, Integrin β1 cytoplasmic tail (CT); 15N-labelled in the HSQC experiment, unlabelled analyte in SPR; The only vector named for the tails is pGST-1; also called ^15N-labeled β1 CT; the integrin β1 CT protein) [integrin β1 CT protein (NMR and SPR samples)]
